Laboratory results as given in the domain aggregation screens of Martell et al. (2025).

Experiment: soluble fraction after stress (log2 fold change); higher = more stays soluble; pooled small domains, quantitative proteomics
Conditions: stress: pH 4
Outline: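 Aggregation propensity is estimated from the fold change in each domain's soluble amount after acid stress. Pooled small-domain libraries were stressed at pH 4, and higher log2 values mean more stayed soluble.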

| Sequence | soluble fraction (log2) |
| --- | --- |
| HMGAGDKQAQQASLMQIIALQKEGMALGLVEPKHLYHSFSKMIENAGFKDVQSFAVDPSTQQ | -0.199 |
| HMIENMQEYVRHIRAAVSDRLDLTREVEDDEIREVISQIVAEESRQNYLSLGERQTVIETVFNSMR | -2.17 |
| HMPPGQIVNEALQRAGNSTPTGTAISAQDDIKLYTSALAELATQGDTSSASVAKLREALQTAQVAFYNAV | 0.0927 |
| HMKVEIVRVVKDIHIGDEITKDMVRTVEVGGYNLPDGVVKDTATVIGRFASADMVPGDYIISSKIADAP | 0.0866 |
| HMNNKVAVKSGYYFELFDKDEIPATLEKMKQKVKIDNIKYDLYQGTSLEDERKIDTMFGEKMGYSIDDYI | -0.527 |
| HMVRSLESESVYDRQRAYEIAYQLRTEERPYSFIATQLNKAGLRPQKAARYEWYSVQELLRSA | ≥ 0.43 |
| HMINNINKLPETQFIKLFANIFENSQFIAVALYKKKGDGFSDFKDLINKIMDIFENTTKEKKLKILNA | -0.173 |
| HMNYYDLLGIPKSATKQQIRKAYRTKAKEFHPDVNGPFNSHMHFLLLKQAYETLMDANMRHVYDMALIS | 0.215 |
| HMSWEELLEHLEKAAERGEEVRIAGVTLHDEEDFKRALRWLKEWL | -1.47 |
| HMSFGKKLRSLRQEKKLSQVELSKKLNVTSQALSQYELGKRIPDAEMIIRIADFFDVSVDYLLDRT | -0.137 |
| HMNERTKIPLRKIEIGQAVYVDTLEKVGTVIDIQGKQFKVDLAGLPITVAARNLFYPLPQEAKP | -0.0254 |
| HMQQAVTMQKPGRLLRNADGNGGAVRDLDVGMMLYPTGNRSELMWEVDDELGNRGWVNSTLFGLS | -0.585 |
| HMGKPTPASQVATRWLTGNLPESLPVAGPAPSFEALARTVSTDLHPRSVLQELVRLGVAEEANGVVTLRRQ | -0.0399 |
| HMLEIRGFTVLLSDRGIVGIIEEIIQNPGQDLLRILSPEKREILVPLHSDLITGINKKKKTITMNLPDGL | -0.775 |
| HMEVPFRNAAIFKTRSGDYAIRASYDGVDLGIKPIEKSTARTYFQLTDVKDKESFLNMTARNQYESEIAGI | 0.153 |
| HMVSGVMAQQAIAVLVQQEDKHAPLSDQALAERLQVQGIDISRRTVAKYRQLLQIPSAATRR | -0.0405 |
| HMNQTEKSKITHNELLKAAHSLFIEQGFNHTTITDIVTRAGYSTGIFYKHYKTKTDILVELWTNYIE | -1.28 |
| HMVEVPNVIGMTKPELTQQFVNLKLDGSGEGDVVVQQSPSEGSKVKEGSTVRVYFG | 0.137 |
| HMAPLATIHVSSLSQKPFYLYGTFEDRRGNHLFFLEQIMGENKSIPVAMPSSAINPKIHASLTPPKG | -0.0804 |

| Sequence | soluble fraction (log2) |
| --- | --- |
| HMKNLKPSTEVILKELVKRYPDQTEFRKQQIVDVGQSFGYKGKDYGPIFDADNRVKIGTYDLAGLIVPLQR | 0.0835 |
| HMFIPMTDAQRHLFANKLAKLPELSEYSRGTESYEDFAIRIADMLLEPPKFRMFYPLLEQLGF | -1.19 |
| HMLTKGDRQSIRDSIIYMVGNAPRTLDYIVAESRYSEEDVIEAVRSLLSSHILSIDDSDMISLTRK | -0.362 |
| HMSKKQEQALQSREKLLDAATALFAEHGYRDTSVQAIGEKAGVSRGSIFWHFGSKEGLLWAVVERAFTA | 0.346 |
| HMIGIEALAGEIDRVRQVLTGGGGLSDVQLFSQLKALNEIKAALGASPDPRAPELVQRVDQLLEAAFRS | -1.1 |
| HMSKPIYSELLREIRSGDVKELTLIPQRREVLVEYSDGRKATVSILANDQQVLRTAESAGVPLTVK | 0.116 |
| HMTKQMELLAQGAAKLSVDLNQRQLDQLQTYYRELVDWNQRMNLTAITQYEEVQVKHFLDSL | -0.294 |
| HMTELPLTPRSKRILEMSALEARRLNHSYIGTEHLLMAIIRDGDGVAAKILESLGVNLPNFYTDTVRSIE | -0.0691 |
| HMNADRIVGQTAKVIHPITPDEKGRVMVDNLDWAAAAQNRGESFEVGEEVSIVRIEGVTVYVQK | -0.57 |
| HMNFTMERLYTKELTSEDIDEIKKELNSMGYTEGVEFNIIKGDKTSFIMAERQLKAKMLSHLSDLGLPRGA | 0.0335 |
| HMDSDIGQQLKILLTVGTFMPSTELKAIAQQFGMKKPTDLKEWVELESDTQRIKGNPTKGYWINEINDL | -0.262 |
| HMSDEINYVIQINGKNRAEAEFGANLDKESIENLALEHERIKELLNGLTVRKIIVVPKKLVNIVA | 0.178 |
| HMVERLVVSPGAGVFAPNKAIANGTRISVGDVLGMVGEQEVRSLFDGVLQSFISVDGERLTAHQPVAWLRT | -0.111 |
| HMEVPQKTLEILEPWRGRKGFLIPVLQAVQHEFGYVPKEAIETVSREMKMPTAEIYGVVTFYAQFH | -0.513 |
| HMSVTYRYSYVYNGNTYSDGWSVRRAIENNENKRFGPEPSDLDHEAQKQARVTFWAEHGVEYKEQEVV | -0.423 |
| HMGEAIPVPDLKHKALTDAEHLVHELGLEIQVVDTGYVKSLPADYILGQSLAPGEKVKSGHIIYVTINSP | 0.0193 |
| HMAVWRIKVNYIPGYGVNIWSSYKNGHFTGKRAMHGETYEVLETKKDQDGNTWYKLDDHQWIEGRYAINAK | -0.88 |
| HMETYSGVERAAILVMYLERTLAKALLDHMNDEEVRRVGMAMASIDRVEGPDIERIVGDFVRELYEVS | -0.857 |
| HMDSGFMRTTQSYTVARLAEIFRLSGEDYLAVLREYDGWYQDLTSTKDLIRKGSDVPVPEGV | -1.02 |

| Sequence | soluble fraction (log2) |
| --- | --- |
| HMLKAKKIPVSDLEKFKGIVAEDVVSKAKALILPRGSNLSWLSNVAKKNLIAKLKAEGIEYISVYSS | 0.0669 |
| HMRGLFTVYMVGEKASRVGELDEEMVYESRIGDVFALGATSWRIEEITHDRVLVSPAYGQPGRLPFWH | -1.72 |
| HMKFLYQQVYQDIKDKITSAQYQFGDLLPSEREIGEEYHVDRTTVRKAFSLLVDEGLVEKRAGKGSVVIS | -0.52 |
| HMAGLYSLLLVELPMERLPEDLPAIKAAWLKTGDTEAFKVALQAMSSRGWTIAVPGKHRDTQMTQL | -0.235 |
| HMFDTVKIGKRIAELRKKRDMTQFELADRLGISYQAVSNWERGNSMPDIAKLPELAEIFGVTVDEILG | 0.135 |
| HMASDEVPGAGFKWREDVLLRVMEANGIDKSNRDDFVRHAVNFDDDDNNYLKKAEIEAAAAAWVESQSPA | -0.239 |
| HMEVKRANRKERFLEALPYQFSRQDYLNIADKNKIPHKTAEGYITKFVDAGLIHREAHNNYTNPTKA | 0.045 |
| HMLKLEDIKKDAQVKGIVDGQIVRIVTVEPIGDHALTVYYKDHQGQFAERMLFRSDELNLELATA | -0.64 |
| HMKSAIGEEKAENFAFADLGMDPLSAEGVRTEFGFEQGQFVYKVYFTADGTEYEYWIKASDGSVVKKGMDL | -1.33 |
| HMIHSEEIQDHIFVKQLGEVFLRNHINYENIMKSWDDHTNVIKRFRRYPHRNKILNRESTIDEISFLKE | -0.0283 |
| HMNKKLEMKIEQLDLSVRLFNSLKRSGIYTVAQIIKLTEEDVMRFRSLGRKSFKELKEKLSEHGLEFE | -1.02 |
| HMDEEQIASRRALIMRAAREIMETQGMEALSIRKIAAMIQQTPGIIYHYFSGKEELMLAVVQEGYH | -0.219 |
| HMPDGTATATASVNVRSGASTLSPVLGVLRVGESIGVTGQANGGWVPVNYNGRAGYVYAAYLSFD | -0.0669 |
| HMAELAKAKLDAAVQVALLKAGALDTDYLAYKLQGMDGVALDDKGSLTGWDTTLETLKSQYPTQFA | -0.388 |
| HMDGQGIRSITPEYYLSDSATKMPDASSSGWKSVPDDYIDKHYYWVRSKILWDDGTYTTTTPVL | -0.291 |
| HMGASSLVGRSARVLQAVTDSDGRIKLAGETWSARLAAGATSTVGPGEEVRVIAIHGATAIVAPV | 0.0834 |
| HMSDPFSPTTTLKNRAKSVLSVDSFEDFKLFIKKMWQEKKEGVYQNPNVETWKDWDNISVKDAKILISLI | -0.327 |
| HMTSVPGTVVTNANLRGGPGTNYPIVGKAPAGTTVNVVESTADRTWYYLDTGSWIAAFLVKLS | -0.229 |
